# According to publication doi:10.1101/2025.03.25.645380, “Extracellular Nanobody Screening using Conformationally Stable GPCR” (bioRxiv, 2025):
# B1: Nb1B4 displayed on yeast (VHH)
# VHH: QVQLQESGGGLVQAGGSLRLSCAASGSIFYGYYMGWYRQAPGKEREFVATINYGASTNYADSVKGRFTISRDNAKNTVYLQMNSLKPEDTAVYYCAVRRVYVYVQRYYHYYWGQGTQVTVSS
# notes: Yeast display fusion; also called active-state selective nanobody
# B2: Nb1B4, purified (VHH)
# VHH: QVQLQESGGGLVQAGGSLRLSCAASGSIFYGYYMGWYRQAPGKEREFVATINYGASTNYADSVKGRFTISRDNAKNTVYLQMNSLKPEDTAVYYCAVRRVYVYVQRYYHYYWGQGTQVTVSS
# notes: also called active-state selective nanobody; source: E. coli BL21(DE3) periplasm or HEK293F supernatant, purified (Ni-NTA, SEC)
# Assays:
# M1R-G11CT [1] = molecular target: T1, M1R-G11CT (Homo sapiens (from template PDB 6OIJ), UniProt P11229, chimera); assay: flow cytometry on cells; nanobody displayed on yeast, single colonies; stained with 10 nM fluorescence-labeled purified FLAG-tagged receptor (atropine-bound M1R-Clip1 or iperoxo-bound M1R-G11CT), Alexa Fluor-647 anti-FLAG and Alexa Fluor-488 anti-HA; selection buffer 20 mM HEPES pH 7.5, 100 mM NaCl, 0.05% MNG, 0.005% CHS, 2 mM CaCl2, 0.1% BSA, 0.2% maltose; conditions: one partner purified
# T1 construct: M1 muscarinic acetylcholine receptor (M1R), N-terminal part through TM5 up to the fusion site T215 (5.65); de novo designed fusion protein (RFdiffusion, ProteinMPNN, AlphaFold2) put between T215 and A364 in place of ICL3; M1 muscarinic acetylcholine receptor (M1R), from the fusion site A364 (6.34) in TM6 to the C-terminus of the receptor; 2×GGSGG linker between the C-terminus of the receptor and …
# M1R-G11CT [2] = molecular target: T1, M1R-G11CT; assay: cryo-EM structure; purified M1R-nanobody complexes on Au Quantifoil grids; Nb1B4 with M1R-G11CT and iperoxo, NbA12 with M1R-Clip1 and atropine; conditions: both partners purified
# Target sequence in this assay (P11229 whole entry, stated change not applied, the tested form may be a part): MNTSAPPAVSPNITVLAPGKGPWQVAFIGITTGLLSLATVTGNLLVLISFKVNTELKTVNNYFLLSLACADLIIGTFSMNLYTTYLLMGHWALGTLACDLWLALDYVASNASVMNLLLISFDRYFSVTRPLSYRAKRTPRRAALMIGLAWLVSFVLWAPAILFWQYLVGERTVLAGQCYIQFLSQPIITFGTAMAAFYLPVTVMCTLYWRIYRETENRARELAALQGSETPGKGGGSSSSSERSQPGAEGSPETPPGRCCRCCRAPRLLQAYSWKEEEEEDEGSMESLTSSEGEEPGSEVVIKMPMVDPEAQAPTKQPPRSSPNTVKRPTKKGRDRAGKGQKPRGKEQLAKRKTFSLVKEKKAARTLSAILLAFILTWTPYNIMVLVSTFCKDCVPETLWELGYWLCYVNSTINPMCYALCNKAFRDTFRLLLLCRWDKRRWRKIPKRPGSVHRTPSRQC
Binder,binding result (M1R-G11CT [1]),binding result (M1R-G11CT [2])
B1,binds,–
B2,–,binds
